Measurements taken from PMC12274480 (Communications Chemistry, 2025).

Biological target: Nn8 (fraction 8 from N. nivea venom) (Naja nivea, UniProt P01390, biotin (site not stated))
Assay: BLI

Chain of Nn8 (fraction 8 from N. nivea venom) (P01390 whole entry, looked up): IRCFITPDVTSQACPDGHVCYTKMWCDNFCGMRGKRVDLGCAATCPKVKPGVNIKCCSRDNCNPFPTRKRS

B1: TPL1158_01_C09 (VHH)
VHH: QVQLQESGGGLVQPGGSLRLSCAASGDIGGLKQMGWYRQAPGHQRELVAVKRNENEANYTESVKGRFTISRDNARKMVYLQMNSLKPEDTAVYYCNAVVGNWYTSGYYEDTYWGQGTQVTVSS
- Kd: 63 nM
